For this data set the following is noted: Rattus norvegicus, pH 7.2, 20 °C, CD, Potassium phosphate 20 mM, reversible: yes, whole UniProt chain shown.

Where “and” joins values, the source holds several entries; their conditions need not be identical. Equal entries are not always repeated.

B1: Fatty acid-binding protein, brain wild type, P55051 (protein)
chain: MVDAFCATWKLTDSQNFDEYMKALGVGFATRQVGNVTKPTVIISQEGGKVVIRTQCTFKNTEISFQLGEEFEETSIDDRNCKSVIRLDGDKLIHVQKWDGKETNCVREIKDGKMVVTLTFGDVVAVRCYEKA
For B1, the denaturant m value is, setting by setting: (DimethylUrea, NaCl 1 M) 1.81 kcal/mol/M; (GdnHCl) 4.21 kcal/mol/M; (GdnSCN) 14 kcal/mol/M; (Urea) 1.82 kcal/mol/M and 2.17 kcal/mol/M. For the same protein, the “denaturant midpoint (higher = more stable)” value is 5.36 M (DimethylUrea, NaCl 1 M); 1.33 M (GdnHCl); 0.73 M (GdnSCN); 5.43 M and 5.79 M (Urea). In addition, the unfolding free energy (DimethylUrea, NaCl 1 M) was 40.6 kJ/mol; the unfolding free energy (GdnHCl) was found to be 23.3 kJ/mol; the unfolding free energy (GdnSCN) turned out to be 42.7 kJ/mol; the unfolding free energy (Urea) was 41.5 kJ/mol and 52.5 kJ/mol.

The values are drawn from FireProtDB (doi:10.1021/bi00493a013).
